# Results from patent publication US20220357317A1 (NATIONAL UNIVERSITY COMORATION HOKKAIDO UNIVERSITY, published 2022).
# T1: oxidized form of human α-defensin HD5 (HD5 with three intramolecular disulfide bonds) (human, six cysteine residues form three intramolecular disulfide bonds (oxidized form))
# T1 construct: Chemically synthesized mature HD5 (32 amino acids), oxidized and purified by reverse-phase chromatography; confirmed by MALDI-TOF MS; also called ox-HD5; DEFA5
# T1 peptide: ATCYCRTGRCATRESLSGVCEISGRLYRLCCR
# T2: reduced form of HD5 (HD5 without any intramolecular disulfide bond) (human, no intramolecular disulfide bonds (reduced form))
# T2 construct: Chemically synthesized mature HD5 before the oxidation treatment; also called r-HD5
# T2 peptide: T1 peptide
# B1: monoclonal antibody 12-1 (antibody, V domains shown)
# VH: QVQLQQSGAELARPGASVKLSCKASGYTFTSYGISWVKQRTGQGLEWIGEIYPRSGNTYYNEKFKGKATLTADKSSSTAYMQLSSLTSEDSAVYFCARDYDGFPYFDYWGQGTTLTVSS
# VL: DIVLTQSPASLAVSLGQRATISCRASESVDSYGYSFMHWYQQKPGQPPKLLIYRASNLESGIPARFSGSGSRTDFTLTINPVEADDVATYYCQQSNEDPRTFGGGTKLEIK
# notes: constant regions are not; Immobilized on the plate as capture antibody in the sandwich ELISA; also called capture antibody 12-1; anti-ox-HD5 monoclonal antibody according to a)
# B2: monoclonal antibody 39E-7 (antibody, V domains shown)
# VH: EVQLQQSGPELVKPGASVKISCKASGYSFTGSYMNWVKQSPEKSLEWIGEINPSTGGTTHNQKFKAKATLTVDTSSSTFYMQLKSLTSEDSAVYYCARDYAGSYDWYFDVWGAGTTVTVSS
# VL: DIKMTQSPSSMYASLGERVTITCKASQDINSYLSWFQQKPGKSPKTLIYRANRLVDGVPSRFSGSGSGQDYSLTISSLEYEDMGIYYCLQYDEFPYTFGGGTKLEII
# notes: constant regions are not; also called detection antibody 39E-7; anti-ox-HD5 monoclonal antibody according to b)
# Legend:
# [1] = target: T1, oxidized form of human α-defensin HD5 …; assay: indirect ELISA screening, plate coated with 1 µg/ml ox-HD5, hybridoma supernatant
# Method: Autoimmune disease mice (C3H/HeJJmsSlc-lpr/lpr available from Japan SLC, Inc.) injected with an adjuvant according to a conventional method were immunized with ox-HD5 by three times of intra-abdominal injection (0.2 mg each time). Later, cells were collected from the spleen of the immunized mice according to a conventional method, and then fused with a mouse myeloma cell line P3U1 with use of 50% polyethylene glycol 1500 (Sigma-Aldrich Co. LLC) to prepare hybridomas. Each hybridoma clone was screened by indirect ELISA, and subcloned four times by a limiting dilution method.
# The indirect ELISA was carried out by the following procedures. Wells of a flat-bottomed microtiter plate (Nunc) were coated with 1 μg/ml of ox-HD5 dissolved in Ca²⁺/Mg²⁺-free phosphate buffered saline (PBS), and then incubated overnight at 4° C. After three times of washing with PBS containing 0.1% Tween 20 (PBS-T), culture supernatant from each hybridoma clone was added to the wells, and incubated at 37° C. for 1 hour. […] 100 μL of 3,3′,5,5′-tetramethylbenzidine (TMB) substrate buffer (KPL) was added to each well, then the plate was incubated at 25° C. for 30 minutes, and then absorbance at 405 nm was measured with use of a microplate reader Multiscan FC (Thermo Scientific).
# [2] = target: T2, reduced form of HD5 (HD5 without any …); assay: sandwich ELISA, capture 12-1 (1 mg/ml) with detection 39E-7 (0.5 mg/ml), antigen 0 to 60 ng/ml
# [3] = target: T1, oxidized form of human α-defensin HD5 …; assay: sandwich ELISA, capture 12-1 (1 mg/ml) with detection 39E-7 (0.5 mg/ml)
Binder,binding result [1],binding result [2],binding result [3]
B1,binds,binds,–
B2,–,binds,binds
